Source: patent publication US20140303084
Changes are numbered by the printed parent chain.

What was measured:
[1] = tested on: T1, (KLTCLASYCWLF)2═N-O-(CH2)3-O-N═
T1 sequence: KLTCLASYCWLF

[2] = tested on: T2, AQWVGRGQWA IRAPG KLTCLASYCWLFWTGIA
T2 sequence: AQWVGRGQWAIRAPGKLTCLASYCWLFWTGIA

[3] = tested on: T3, ARAPGKLQCLASYCWLFWTGIA
T3 sequence: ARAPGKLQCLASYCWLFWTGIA

[4] = tested on: T4, Biotin-PEG2-LYTAWIKCQFARLPGCALSGRW
T4 sequence: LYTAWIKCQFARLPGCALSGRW

[5] = tested on: T5, CGGSGGRRAPGKLQCLASYCWLFWTGIAGGSGGC
T5 sequence: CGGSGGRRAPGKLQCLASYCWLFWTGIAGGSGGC

[6] = tested on: T6, DAKVAKLRCLGSQCWLLQYAPG
T6 sequence: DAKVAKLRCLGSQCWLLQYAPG

[7] = tested on: T7, ERYRLDMTCMASQCWQFPPAAG
T7 sequence: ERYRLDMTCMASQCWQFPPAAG

[8] = tested on: T8, GDSGRKLSCLGSYCWLSVQFMA
T8 sequence: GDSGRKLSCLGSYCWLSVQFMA

[9] = tested on: T9, GSVRRALFVA ARAPA KLTCLASYCWLFWTGIA
T9 sequence: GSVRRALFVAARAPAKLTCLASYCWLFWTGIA

[10] = tested on: T10, HYARVQLRCLDGYCWLLTKSRM
T10 sequence: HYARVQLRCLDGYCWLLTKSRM

[11] = tested on: T11, KKTCLASYCWLF
T11 sequence: KKTCLASYCWLF

[12] = tested on: T12, KLTCAASYCWLF
T12 sequence: KLTCAASYCWLF

[13] = tested on: T13, KLTCL-Dpr-SYCWLF
T13 sequence: KLTCLXSYCWLF

[14] = tested on: T14, KLTCLA-HSe-YCWLF
T14 sequence: KLTCLAXYCWLF

[15] = tested on: T15, KLTCLASACWLF
T15 sequence: KLTCLASACWLF

[16] = tested on: T16, KLTCLASYCWIF
T16 sequence: KLTCLASYCWLF

[17] = tested on: T17, KLTCLASYCWLF-COOH
T17 sequence: KLTCLASYCWLF

[18] = tested on: T18, KLTCLASYCWYF
T18 sequence: KLTCLASYCWYF

[19] = tested on: T19, KLTCLSSYCWLF
T19 sequence: KLTCLSSYCWLF

[20] = tested on: T20, KLTCQASYCWLF
T20 sequence: KLTCQASYCWLF

[21] = tested on: T21, LTWREKLACLASYCWLFLWGAP
T21 sequence: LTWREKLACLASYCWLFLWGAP

[22] = tested on: T22, PRIRTVGPGSRSASGKLTCAASYCWLFWTGIA
T22 sequence: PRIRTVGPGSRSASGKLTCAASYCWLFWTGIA

[23] = tested on: T23, PRIRTVGPGSRSASGKLTCVASYCWLFWTGIA
T23 sequence: T22 sequence with A20V

[24] = tested on: T24, PRIRTVGPSSRSASGKLTCLASYCWLFWTGIA
T24 sequence: T22 sequence with G9S, A20L

[25] = tested on: T25, PSGWAGWAPG RREPG KLTCLASYCWLFWTGIA
T25 sequence: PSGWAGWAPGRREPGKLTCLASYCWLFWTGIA

[26] = tested on: T26, RAPGKLQCLASYCWLFWTGIA
T26 sequence: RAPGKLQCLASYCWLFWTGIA

[27] = tested on: T27, RRAP-Sar-KLTCLASYCWLFWTGIA
T27 sequence: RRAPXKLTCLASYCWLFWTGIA

[28] = tested on: T28, RRAPGKLQCLASYCWLFWTAIA
T28 sequence: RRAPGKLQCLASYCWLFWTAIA

[29] = tested on: T29, RRAPGKLQCLASYCWLFWTG-Nle-A
T29 sequence: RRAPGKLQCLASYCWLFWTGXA

[30] = tested on: T30, RRAPGKLQCLASYCWLFWTGFA
T30 sequence: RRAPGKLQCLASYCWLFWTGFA

[31] = tested on: T31, RRAPGKLQCLASYCWLFWTGIK
T31 sequence: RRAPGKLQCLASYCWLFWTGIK

[32] = tested on: T32, RRAPGKLQCLASYCWLFW
T32 sequence: RRAPGKLQCLASYCWLFW

[33] = tested on: T33, RRAPGKLT-Asp-LASY-Dap-WLFWTGIA-COOH
T33 sequence: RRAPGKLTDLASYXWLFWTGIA

[34] = tested on: T34, RRAPGKLT-Asp-LASY-Lys-WLFWTGIA-CONH2
T34 sequence: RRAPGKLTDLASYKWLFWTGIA

[35] = tested on: T35, RRAPGKLT-Lys-LASY-Asp-WLFWTGIA-CONH2
T35 sequence: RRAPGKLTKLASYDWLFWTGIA

[36] = tested on: T36, RRAPGKLTCLASYAWCFWTGIA-COOH
T36 sequence: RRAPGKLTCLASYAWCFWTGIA

[37] = tested on: T37, RRAPGKLTCLASYCK(PEG2-Biotin)LFWTGIA
T37 sequence: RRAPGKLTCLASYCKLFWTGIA

[38] = tested on: T38, RRAPGKLTCLASYCWLF LTGWA RVPLPPRPHP
T38 sequence: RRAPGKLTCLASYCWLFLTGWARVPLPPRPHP

[39] = tested on: T39, RRAPGKLTCLASYCWLF QTGWA YWGYRQHPGS
T39 sequence: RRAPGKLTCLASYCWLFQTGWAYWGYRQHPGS

[40] = tested on: T40, RRAPGKLTCLASYCWLF RTQIA TPESEYRQQA
T40 sequence: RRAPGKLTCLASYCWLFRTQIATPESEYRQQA

[41] = tested on: T41, RRFVGGSLSQ RRAPG KLTCLASYCWLFWTGIA
T41 sequence: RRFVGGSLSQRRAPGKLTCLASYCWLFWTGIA

[42] = tested on: T42, RRK(PEG2-Biotin)PGKLTCLASYCWLFWTGIA
T42 sequence: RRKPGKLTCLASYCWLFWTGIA

[43] = tested on: T43, SAQGRPISPDrRAAGKLTCLASYCWLFWTGIA
T43 sequence: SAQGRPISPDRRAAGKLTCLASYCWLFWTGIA

[44] = tested on: T44, SRIRTVGPGSRSASGKLTCLASYCWLFWTGIA
T44 sequence: T22 sequence with P1S, A20L

[45] = tested on: T45, SRSRTVSPGSRSASGKSTCLASYCWLFWTGIA
T45 sequence: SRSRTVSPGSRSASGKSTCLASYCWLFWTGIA

[46] = tested on: T46, compound C
T46 sequence: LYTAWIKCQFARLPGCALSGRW

[47] = tested on: T47, rRAAGKATCLASACW LAATGIA
T47 sequence: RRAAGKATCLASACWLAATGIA

[48] = tested on: T48, rRAPGKLTCLASYCWLFWTGIA-PEG4-C(N-PEG5k maleimide)
T48 sequence: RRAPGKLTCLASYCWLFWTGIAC

In the case of human Factor IXa, the Vmax, FXa generation assay [1] is reported as > 3, the Vmax, FXa generation assay [2] is reported as > 2 and the Vmax, FXa generation assay [3] is reported as > 2. The Vmax, FXa generation assay [4] was > 1.5, the “Vmax, FXa generation assay; (++) means 1-2” value (shortened to “Vmax … (++) means 1-2”) [5] was “(++)” and the “Vmax … (++) means 1-2” value [6] was “(++)”. For the same substance, the “Vmax … (++) means 1-2” value [7] was “(++)”, the “Vmax … (++) means 1-2” value [8] was “(++)” and the Vmax, FXa generation assay [9] was > 2. The Vmax, FXa generation assay [10] was > 2.5, the “Vmax … (++) means 1-2” value [11] was “(++)” and the “Vmax … (++) means 1-2” value [12] was “(++)”. For the same substance, the “Vmax … (++) means 1-2” value [13] was “(++)”, the “Vmax … (++) means 1-2” value [14] was “(++)” and the Vmax, FXa generation assay [15] was > 2. The Vmax, FXa generation assay [16] was > 3, the “Vmax … (++) means 1-2” value [17] was “(++)” and the Vmax, FXa generation assay [18] was > 2. For the same substance, the Vmax, FXa generation assay [19] was > 2, the “Vmax … (++) means 1-2” value [20] was “(++)” and the “Vmax … (++) means 1-2” value [21] was “(++)”. For the same substance, the Vmax, FXa generation assay [22] was > 2, the Vmax, FXa generation assay [23] was > 2 and the Vmax, FXa generation assay [24] was > 3. For the same substance, the Vmax, FXa generation assay [25] was > 2, the “Vmax … (++) means 1-2” value [26] was “(++)” and the Vmax, FXa generation assay [27] was > 2. For the same substance, the Vmax, FXa generation assay [28] was > 2, the Vmax, FXa generation assay [29] was > 2 and the Vmax, FXa generation assay [30] was > 2. The “Vmax … (++) means 1-2” value [31] was “(++)”, the Vmax, FXa generation assay [32] was > 2 and the “Vmax … (++) means 1-2” value [33] was “(++)”. For the same substance, the Vmax, FXa generation assay [34] was > 2, the “Vmax … (++) means 1-2” value [35] was “(++)” and the Vmax, FXa generation assay [36] was > 2. The “Vmax … (++) means 1-2” value [37] was “(++)”, the “Vmax … (++) means 1-2” value [38] was “(++)” and the Vmax, FXa generation assay [39] was > 2. For the same substance, the Vmax, FXa generation assay [40] was > 3, the Vmax, FXa generation assay [41] was > 3 and the “Vmax … (++) means 1-2” value [42] was “(++)”. The Vmax, FXa generation assay [43] was > 2, the Vmax, FXa generation assay [44] was > 3 and the Vmax, FXa generation assay [45] was > 3. The KM (nM) of hFIXa for FX [46] was 99 nM, the Vmax, FXa generation assay with hFIXa [46] was > 0.6 and the kcat (min^-1) of hFIXa for FX, scrambled control at 10.0 µM [46] was 0.00044 min⁻¹. For the same substance, the Vmax, FXa generation assay [47] was > 3 and the Vmax, FXa generation assay [48] was > 2.
